Measurements: patent US20120277286A1, “COMPOSITIONS AND METHODS FOR THE TREATMENT OR PREVENTION OF MITOCHONDRIAL DISEASES” (The Government of the USA, as represented by the Secretary, …, priority 2009, published 2012)
Changes are numbered by the printed parent chain. Names may count otherwise. *1 amine or outer side, *2 acyl side, *3 side chain or, on linkers, in order; H or OH if unused. Where a SMILES comes first, the peptide text is derived from it. Bridges are numbered along the chain shown (N, C = ends). Roman numbers before positions name the chains, in order. [ ]: non-standard residue; d: D form. Actinocin(9to1) = Cc1c2oc3c(C)ccc(C(=O)[*:1])c3nc-2c(C(=O)[*:2])c(N)c1=O; NMeV = CN[C@H](C(=O)O)C(C)C; Sar = CNCC(=O)O

Test system: HeLa cells
Test: Parkin colocalization with mitochondria scored by confocal microscopy
Assay type: cell-based
Conditions: for effect on CCCP-induced Parkin recruitment to mitochondria: HeLa cells expressing YFP-Parkin, added together with CCCP; for spontaneous translocation of mutant YFP-Parkin to mitochondria: without CCCP; for recruitment of mutant YFP-Parkin to depolarized mitochondria: CCCP 1 hr; for recruitment of mutant YFP-Parkin to mitochondria: 10 μM CCCP, 24 hours; for cells with Parkin localized to mitochondria: HeLa transfected with Flag-tagged Twinkle for 5 days
Description: Cultured cells seeded in borosilicate chamber slides (Thermo Fisher Scientific) were transfected or cotransfected with YFP-Parkin, ECFP-Parkin, mCherry-Parkin, DsRed-Mito (Clontech Laboratories, Inc.), pcDNA3.1 (Invitrogen), vMIA, and/or Drp1K38A constructs using Fugene 6 (Roche). Parkin-myc was a gift from M. Cookson (National Institutes of Health, Bethesda, Md.). Cells were fixed 12-24 hours after transfection with 4% paraformaldehyde in PBS. Cells were stained with following primary antibodies: mouse monoclonal cytochrome c (BD), rabbit polyclonal Tom20 (Santa Cruz Biotechnology, Inc.), mouse monoclonal Parkin PRK8 (Santa Cruz Biotechnology, Inc.), rabbit polyclonal PMP70 (Invitrogen), and/or mouse monoclonal TRAP1 (Abcam); and with the following secondary antibodies: mouse and/or rabbit Alexa 488, 594, and 633 (Invitrogen). For assessment of mitochondrial membrane potential, cells were pulsed with 50 nM Mito-Tracker red (Invitrogen) for 15 min, washed, and incubated for an additional 10 minutes before fixation or imaging. For assessment of cell metabolic potential, cell nuclei were stained with Hoechst 33342 (Invitrogen).
Fixed cells and live cells in the FLIP assay were imaged using an inverted microscope (LSM510 Meta; Carl Zeiss, Inc.) with a 63×/1.4 oil DIC Plan Apo objective at 25° C. and 37° C., respectively. For the FLIP assay, a bleach region of interest (ROI) occupying approximately one eighth of the cell was positioned over a relatively mitochondria-free portion of the cytosol. Cells were alternately bleached (488 nm using a 30-mW argon laser at 75% power and 100% transmission for 150 iterations) and imaged (488 nm at 75% power and 2% transmission) for 10 minutes (—60 cycles over the length of the experiment). Two channel prebleach and postbleach images were obtained with 488 and 594 lasers to assess the position of mitochondria before and after bleaching. Circular ROIs with diameters of ˜1 and 5 μm, respectively, were placed over the mitochondria and cytosol of the target cell, and an ROI of 10 μm was placed over the control cell. Imaging of YFP-Parkin translocation in live HeLa cells was performed on a live cell imager system (UltraView LCI; PerkinElmer) at 35° C. with a 100×/1.45 α-Plan-Fluor objective.
Image contrast and brightness were adjusted in Photoshop (Adobe). Colocalization was assessed with line scans using MetaMorph (MDS Analytical Technologies). For analysis of mitochondrial membrane potential in cells, mitochondrial voxels in each image (the cytochrome c channel threshold was ≧400 au) were segregated into Parkin-positive (the YFP-Parkin channel threshold was ≧1,100 au) or Parkin-negative subsets, and MitoTracker intensity for each voxel was measured using Volocity software (Improvision). For each cell, the mean MitoTracker intensity per voxel was calculated for the Parkin-positive and Parkin-negative subsets. The difference in mean Mito-Tracker intensity between the Parkin-positive and Parkin-negative subsets was calculated using a paired t test. Western blotting HeLa cells stably expressing YFP-Parkin, HEK293 cells, and rat cortical neurons 2 days in vitro were harvested and fractionated as described previously (Karbowski et al., J. Cell Biol. 178: 71-84, 2007). Samples were run on SDS-PAGE and immunoblotted with the following antibodies: polyclonal rabbit anti-GFP (Invitrogen), mouse monoclonal anti-Parkin (PRK8), and mouse monoclonal anti-Porin 31HL (EMD).
Confocal microscopy of fixed samples, scoring of Parkin recruitment and Parkininduced mitophagy, and live cell imaging were performed as described previously (Narendra (2008) J Cell Biol 183: 795-803). Experiments in Mfn1/2 null cells were performed as described previously with minor modifications.
Confocal microscopy of fixed samples, scoring of Parkin recruitment and Parkin-induced mitophagy, and live cell imageing were performed as described previously (Narendra (2008) J Cell Biol 183: 795-803). […]

Molecule: CC[C@H]1/C=C/C=C/C[C@@H](C)[C@H](O)[C@@](C)(O)C(=O)[C@@H](C)[C@H](O)[C@@H](C)C(=O)[C@@H](C)[C@H](O)[C@@H](C)/C=C/C(=O)O[C@@H]2[C@H](C)[C@H](CC1)O[C@]1(CC[C@H](C)[C@H](C[C@@H](C)O)O1)[C@H]2C [oligomycin, reference compound]
- effect on CCCP-induced Parkin recruitment to mitochondria: not inhibited
- YFP-Parkin colocalization with mitochondria, % of cells (HeLa cells, 10 μM CCCP+10 μM oligomycin, 1 hour): 77.35±7.64%

Molecule: CC(=O)N[C@@H](CS)C(=O)O [N-acetyl-cysteine, reference compound]
- effect on CCCP-induced Parkin recruitment to mitochondria: not blocked

Molecule: Cc1c2oc3c(C)ccc(C(=O)N[C@@H]4C(=O)N[C@H](C(C)C)C(=O)N5CCC[C@H]5C(=O)N(C)CC(=O)N(C)[C@@H](C(C)C)C(=O)O[C@@H]4C)c3nc-2c(C(=O)N[C@@H]2C(=O)N[C@H](C(C)C)C(=O)N3CCC[C@H]3C(=O)N(C)CC(=O)N(C)[C@@H](C(C)C)C(=O)O[C@@H]2C)c(N)c1=O [actinomycin D, reference compound] (I: T[dV]P[Sar][NMeV] / II: T[dV]P[Sar][NMeV]; ester I:1-I:C, II:1-II:C; linker I:N-II:N via Actinocin(9to1))
- effect on CCCP-induced Parkin recruitment to mitochondria: modest effect

B1: PINK1-YFP: YFP fused to PINK1 (protein, UniProt Q9BXM7 78-581, looked up)
Serine/threonine-protein …: AARLQRQFVVRAWGCAGPCGRAVFLAFGLGLGLIEEKQAESRRAVSACQEIQAIFTQKSKPGPDPLDTRRLQGFRLEEYLIGQSIGKGCSAAVYEATMPTLPQNLEVTKSTGLLPGRGPGTSAPGEGQERAPGAPAFPLAIKMMWNISAGSSSEAILNTMSQELVPASRVALAGEYGAVTYRKSKRGPKQLAPHPNIIRVLRAFTSSVPLLPGALVDYPDVLPSRLHPEGLGHGRTLFLVMKNYPCTLRQYLCVNTPSPRLAAMMLLQLLEGVDHLVQQGIAHRDLKSDNILVELDPDGCPWLVIADFGCCLADESIGLQLPFSSWYVDRGGNGCLMAPEVSTARPGPRAVIDYSKADAWAVGAIAYEIFGLVNPFYGQGKAHLESRSYQEAQLPALPESVPPDVRQLVRALLQREASKRPSARVAANVLHLSLWGEHILALKNLKLDKMVGWLLQQSAATLLANRLTEKCCVETKMKMLFLANLECETLCQAALLLCSWRAAL
modifications: YFP fusion
- cells with mCherry-Parkin recruited to mitochondria (HeLa, co-expression, absence of CCCP): 57.9±1.8%

B2: T175E: phosphomimetic YFP-Parkin mutant (protein, UniProt O60260 1-465, looked up, variant T175E)
E3 ubiquitin-protein ligase …: MIVFVRFNSSHGFPVEVDSDTSIFQLKEVVAKRQGVPADQLRVIFAGKELRNDWTVQNCDLDQQSIVHIVQRPWRKGQEMNATGGDDPRNAAGGCEREPQSLTRVDLSSSVLPGDSVGLAVILHTDSRKDSPPAGSPAGRSIYNSFYVYCKGPCQRVQPGKLRVQCSTCRQATLELTQGPSCWDDVLIPNRMSGECQSPHCPGTSAEFFFKCGAHPTSDKETSVALHLIATNSRNITCITCTDVRSPVLVFQCNSRHVICLDCFHLYCVTRLNDRQFVHDPQLGYSLPCVAGCPNSLIKELHHFRILGEEQYNRYQQYGAEECVLQMGGVLCPRPGCGAGLLPEPDQRKVTCEGGNGLGCGFAFCRECKEAYHEGECSAVFEASGTTTQAYRVDERAAEQARWEAASKETIKKTTKPCPRCHVPVEKNGGCMHMKCPQPQCRLEWCWNCGCEWNRVCMGDHWFDV
modifications: YFP fusion
notes: phosphomimetic YFP-Parkin mutant
- spontaneous translocation of mutant YFP-Parkin to mitochondria (HeLa): did not translocate to mitochondria spontaneously

B3: C212Y: YFP-Parkin patient mutation in conserved RING-like region (protein, UniProt O60260 1-465, looked up, variant C212Y)
E3 ubiquitin-protein ligase …: B2 E3 ubiquitin-protein ligase … with E175T, C212Y
modifications: N-terminal YFP fusion
notes: YFP-Parkin patient mutation in conserved RING-like region
- recruitment of mutant YFP-Parkin to depolarized mitochondria (HeLa): blocked

B4: C253Y: YFP-Parkin patient mutation in conserved RING cysteine (protein, UniProt O60260 1-465, looked up, variant C253Y)
E3 ubiquitin-protein ligase …: B2 E3 ubiquitin-protein ligase … with E175T, C253Y
modifications: YFP fusion
notes: YFP-Parkin patient mutation in conserved RING cysteine
- recruitment of mutant YFP-Parkin to depolarized mitochondria (HeLa): completely disrupt

B5: C441R: YFP-Parkin patient mutation in conserved RING cysteine (protein, UniProt O60260 1-465, looked up, variant C441R)
E3 ubiquitin-protein ligase …: B2 E3 ubiquitin-protein ligase … with E175T, C441R
modifications: YFP fusion
notes: as for B4
- recruitment of mutant YFP-Parkin to mitochondria (HeLa): Mitochondrial recruitment was seen
- recruitment of mutant YFP-Parkin to depolarized mitochondria (HeLa): completely disrupt

B6: I44A: YFP-Parkin with engineered UBL mutation (protein, UniProt O60260 1-465, looked up, variant I44A)
E3 ubiquitin-protein ligase …: B2 E3 ubiquitin-protein ligase … with I44A, E175T
modifications: YFP fusion
notes: YFP-Parkin with engineered UBL mutation
- recruitment of mutant YFP-Parkin to depolarized mitochondria (HeLa): moderate deficit

B7: T217E: phosphomimetic YFP-Parkin mutant (protein, UniProt O60260 1-465, looked up, variant T217E)
E3 ubiquitin-protein ligase …: B2 E3 ubiquitin-protein ligase … with E175T, T217E
modifications: YFP fusion
notes: as for B2
- spontaneous translocation of mutant YFP-Parkin to mitochondria (HeLa): did not translocate to mitochondria spontaneously

B8: T175, 217E: double phosphomimetic YFP-Parkin mutant (protein, UniProt O60260 1-465, looked up, variant T175E T217E)
E3 ubiquitin-protein ligase …: B2 E3 ubiquitin-protein ligase … with T217E
modifications: YFP fusion
notes: double phosphomimetic YFP-Parkin mutant
- spontaneous translocation of mutant YFP-Parkin to mitochondria (HeLa): did not translocate to mitochondria spontaneously

B9: C289G: YFP-Parkin patient mutation in conserved RING cysteine (protein, UniProt O60260 1-465, looked up, variant C289G)
E3 ubiquitin-protein ligase …: B2 E3 ubiquitin-protein ligase … with E175T, C289G
modifications: YFP fusion
notes: as for B4
- recruitment of mutant YFP-Parkin to mitochondria (HeLa): Mitochondrial recruitment was seen
- recruitment of mutant YFP-Parkin to depolarized mitochondria (HeLa): completely disrupt

B10: Twinkle G575D: catalytically inactive mutant of mitochondrial DNA helicase Twinkle, Flag-tagged (protein, UniProt Q96RR1 32-684, looked up, variant G575D)
Twinkle mtDNA helicase: APGPPRRRYRKETLQALDMPVLPVTATEIRQYLRGHGIPFQDGHSCLRALSPFAESSQLKGQTGVTTSFSLFIDKTTGHFLCMTSLAEGSWEDFQASVEGRGDGAREGFLLSKAPEFEDSEEVRRIWNRAIPLWELPDQEEVQLADTMFGLTKVTDDTLKRFSVRYLRPARSLVFPWFSPGGSGLRGLKLLEAKCQGDGVSYEETTIPRPSAYHNLFGLPLISRRDAEVVLTSRELDSLALNQSTGLPTLTLPRGTTCLPPALLPYLEQFRRIVFWLGDDLRSWEAAKLFARKLNPKRCFLVRPGDQQPRPLEALNGGFNLSRILRTALPAWHKSIVSFRQLREEVLGELSNVEQAAGLRWSRFPDLNRILKGHRKGELTVFTGPTGSGKTTFISEYALDLCSQGVNTLWGSFEISNVRLARVMLTQFAEGRLEDQLDKYDHWADRFEDLPLYFMTFHGQQSIRTVIDTMQHAVYVYDICHVIIDNLQFMMGHEQLSTDRIAAQDYIIGVFRKFATDNNCHVTLVIHPRKEDDDKELQTASIFDSAKASQEADNVLILQDRKLVTGPGKRYLQVSKNRFDGDVGVFPLEFNKNSLTFSIPPKNKARLKKIKDDTGPVAKKPSSGKKGATTQNSEICSGQAPTPDQPDTSKRSK
modifications: Flag tag
- cells with Parkin localized to mitochondria: 13.1±2.3%

B11: wild-type Twinkle: Flag-tagged wild-type mitochondrial DNA helicase Twinkle (protein, UniProt Q96RR1 32-684, looked up)
Twinkle mtDNA helicase: B10 Twinkle mtDNA helicase with D544G
modifications: Flag tag
- cells with Parkin localized to mitochondria: 6.7±1.2%
